Measured values published in patent US20240084003A1 (SIMCERE ZAIMING PHARMACEUTICAL, published 2024).

T1: monkey CD22 protein (ACROBiosystems, SI2-R52Ha) (monkey (rhesus monkey in paragraph 148), UniProt H9G1X2 18-686)
T1 construct: extracellular domain; also called monkey CD22-ECD; monkey CD22-ECD-His
T1 sequence: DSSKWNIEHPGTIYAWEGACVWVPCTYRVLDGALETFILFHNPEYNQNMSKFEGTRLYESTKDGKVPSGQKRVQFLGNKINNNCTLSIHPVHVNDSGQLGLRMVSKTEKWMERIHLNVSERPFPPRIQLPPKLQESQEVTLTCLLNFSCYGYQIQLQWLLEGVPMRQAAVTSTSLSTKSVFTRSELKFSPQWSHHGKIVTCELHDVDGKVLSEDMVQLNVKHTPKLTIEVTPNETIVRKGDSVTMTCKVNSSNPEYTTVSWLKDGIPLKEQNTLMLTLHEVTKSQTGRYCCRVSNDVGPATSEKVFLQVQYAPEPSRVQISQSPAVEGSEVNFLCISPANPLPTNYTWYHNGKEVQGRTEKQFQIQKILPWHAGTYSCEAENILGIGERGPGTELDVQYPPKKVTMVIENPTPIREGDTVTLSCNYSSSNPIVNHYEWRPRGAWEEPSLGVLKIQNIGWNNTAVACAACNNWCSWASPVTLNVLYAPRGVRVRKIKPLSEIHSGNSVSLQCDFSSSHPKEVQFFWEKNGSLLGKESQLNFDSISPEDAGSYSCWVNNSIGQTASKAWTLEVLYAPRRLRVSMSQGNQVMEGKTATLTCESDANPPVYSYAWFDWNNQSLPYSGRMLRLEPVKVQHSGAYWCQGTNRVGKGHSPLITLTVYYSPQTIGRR

T2: murine CD22 protein (ACROBiosystems, SI2-M52Ha) (murine, UniProt P35329 22-708)
T2 construct: extracellular domain; also called murine CD22-ECD; murine CD22-ECD-His
T2 sequence (looked up): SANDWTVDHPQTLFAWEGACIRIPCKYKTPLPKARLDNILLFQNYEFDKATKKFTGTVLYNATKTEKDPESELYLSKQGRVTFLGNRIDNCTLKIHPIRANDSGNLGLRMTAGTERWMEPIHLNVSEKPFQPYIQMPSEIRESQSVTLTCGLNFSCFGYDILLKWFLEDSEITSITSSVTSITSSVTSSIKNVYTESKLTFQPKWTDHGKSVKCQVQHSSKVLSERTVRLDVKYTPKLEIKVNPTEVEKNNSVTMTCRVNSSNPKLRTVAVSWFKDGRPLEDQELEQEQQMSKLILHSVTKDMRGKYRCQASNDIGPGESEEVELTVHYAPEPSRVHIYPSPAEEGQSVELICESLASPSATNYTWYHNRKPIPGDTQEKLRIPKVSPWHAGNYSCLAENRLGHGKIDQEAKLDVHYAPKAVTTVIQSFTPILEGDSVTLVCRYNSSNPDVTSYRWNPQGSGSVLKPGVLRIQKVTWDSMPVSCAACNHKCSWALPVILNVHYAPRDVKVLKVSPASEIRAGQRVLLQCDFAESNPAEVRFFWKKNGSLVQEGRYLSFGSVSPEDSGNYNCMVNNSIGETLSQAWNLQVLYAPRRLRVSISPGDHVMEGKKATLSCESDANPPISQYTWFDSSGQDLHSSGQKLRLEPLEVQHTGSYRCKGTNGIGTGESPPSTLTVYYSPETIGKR

T3: monkey CD22 (full length, on HEK293T cells) (monkey)
T3 construct: NCBI XP_014979161.2; also called HEK293T-monkey CD22; HEK293T cells overexpressing monkey CD22
T3 chain: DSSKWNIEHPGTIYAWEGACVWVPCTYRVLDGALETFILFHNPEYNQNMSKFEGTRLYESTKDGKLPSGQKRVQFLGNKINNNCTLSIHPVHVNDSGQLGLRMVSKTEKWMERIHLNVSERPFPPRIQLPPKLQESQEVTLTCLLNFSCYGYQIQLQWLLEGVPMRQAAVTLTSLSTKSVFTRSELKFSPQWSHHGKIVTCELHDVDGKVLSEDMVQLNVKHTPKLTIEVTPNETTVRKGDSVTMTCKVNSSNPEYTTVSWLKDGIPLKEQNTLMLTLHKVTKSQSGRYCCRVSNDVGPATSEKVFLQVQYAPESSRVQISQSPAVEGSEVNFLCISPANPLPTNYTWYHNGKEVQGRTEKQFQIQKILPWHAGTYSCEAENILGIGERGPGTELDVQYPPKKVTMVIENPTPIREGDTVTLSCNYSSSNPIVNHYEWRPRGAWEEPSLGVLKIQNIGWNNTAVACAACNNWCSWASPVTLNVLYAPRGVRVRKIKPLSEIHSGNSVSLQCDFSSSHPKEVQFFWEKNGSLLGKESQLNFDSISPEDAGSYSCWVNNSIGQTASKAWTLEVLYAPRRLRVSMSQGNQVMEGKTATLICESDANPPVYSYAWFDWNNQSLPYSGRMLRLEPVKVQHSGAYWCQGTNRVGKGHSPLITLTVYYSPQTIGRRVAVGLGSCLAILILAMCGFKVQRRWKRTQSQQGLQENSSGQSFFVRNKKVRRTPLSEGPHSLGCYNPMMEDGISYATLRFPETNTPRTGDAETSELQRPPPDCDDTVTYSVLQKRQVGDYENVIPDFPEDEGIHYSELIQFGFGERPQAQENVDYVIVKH

T4: human CD22-ECD-His protein (human, UniProt P20273 20-687)
T4 construct: Recombinant, from HEK293E cells; also called hCD22-ECD-His; human CD22-His protein; not shown: His tag
T4 sequence: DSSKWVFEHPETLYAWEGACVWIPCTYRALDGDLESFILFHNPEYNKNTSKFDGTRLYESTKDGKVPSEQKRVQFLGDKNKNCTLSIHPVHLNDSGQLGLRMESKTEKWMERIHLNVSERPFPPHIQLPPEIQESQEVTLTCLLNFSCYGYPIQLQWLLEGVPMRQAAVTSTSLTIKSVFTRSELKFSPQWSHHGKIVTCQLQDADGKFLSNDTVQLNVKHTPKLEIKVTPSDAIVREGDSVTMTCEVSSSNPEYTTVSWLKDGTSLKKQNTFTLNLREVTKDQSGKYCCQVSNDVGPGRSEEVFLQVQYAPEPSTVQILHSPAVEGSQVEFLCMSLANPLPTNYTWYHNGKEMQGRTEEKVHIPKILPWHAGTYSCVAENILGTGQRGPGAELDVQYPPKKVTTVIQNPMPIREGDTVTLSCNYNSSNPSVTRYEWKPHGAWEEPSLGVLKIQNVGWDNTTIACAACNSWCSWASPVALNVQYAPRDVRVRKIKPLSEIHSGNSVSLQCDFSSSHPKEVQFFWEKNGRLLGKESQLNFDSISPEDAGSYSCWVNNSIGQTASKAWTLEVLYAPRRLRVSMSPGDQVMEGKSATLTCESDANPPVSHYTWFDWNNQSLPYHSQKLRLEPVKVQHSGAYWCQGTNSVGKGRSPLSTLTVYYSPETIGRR

T5: human CD22 domain1-4-His (human, UniProt P20273 20-425)
T5 construct: also called hCD22 domain1-4-His; not shown: His tag
T5 sequence: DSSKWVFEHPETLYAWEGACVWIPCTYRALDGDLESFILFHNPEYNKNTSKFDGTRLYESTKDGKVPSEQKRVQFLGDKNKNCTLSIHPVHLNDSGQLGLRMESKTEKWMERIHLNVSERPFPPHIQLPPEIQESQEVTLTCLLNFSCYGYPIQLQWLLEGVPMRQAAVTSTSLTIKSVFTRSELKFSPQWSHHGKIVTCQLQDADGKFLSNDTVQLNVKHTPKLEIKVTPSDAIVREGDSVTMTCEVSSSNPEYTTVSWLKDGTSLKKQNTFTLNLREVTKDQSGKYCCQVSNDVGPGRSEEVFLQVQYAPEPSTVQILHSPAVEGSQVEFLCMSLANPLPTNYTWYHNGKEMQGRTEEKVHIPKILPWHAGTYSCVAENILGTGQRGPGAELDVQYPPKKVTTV

B1: m971-hIgG1 (antibody, V domains shown)
VH: QVQLQQSGPGLVKPSQTLSLTCAISGDSVSSNSAAWNWIRQSPSRGLEWLGRTYYRSKWYNDYAVSVKSRITINPDTSKNQFSLQLNSVTPEDTAVYYCAREVTGDLEDAFDIWGQGTMVTVSS
VL: DIQMTQSPSSLSASVGDRVTITCRASQTIWSYLNWYQQRPGKAPNLLIYAASSLQSGVPSRFSGRGSGTDFTLTISSLQAEDFATYYCQQSYSIPQTFGQGTKLEIKR
notes: Control antibody; variable regions from US 8,591,889 B on human IgG1 constant regions
B2: F2.180.16 (antibody, human IgG1, lambda, V domains shown)
VH: EVKLVESGGGLVLPGGSLKISCAASGFTFSDYYMYWIRQTPDKRLEWVAYISNTGYSTFYPDSVKGRFTVSRDNAKNTLYLQMSRLQSEDTAMYYCARHGILYAMDYWGQGTSVTVSS
VL: QPVLTQSSSASFSLGASAKLTCTLSSQYSTYTIGWYQQQPLKPPKYVMELKHDGSRHTGDGIPDRFSGSSSGADRYLSISNIQPEDEATYICGVGDTIKEQFMYVFGGGTKVTVLG
notes: Chimeric IgG1 lambda
B3: F1.60.9 (antibody, human IgG1, kappa, V domains shown)
VH: QVQLKESGPGLVAPSQSLSITCTVSGLSLNNYGVSWVRQPPGKGLEWLGVIWGDGSTNYHSALISRLSISKDNSKSQVFLKLNSLHTDDTATYYCAINWGDYWGQGTTLIVSS
VL: DIKMTQSPSSMNASLGERVTITCKASQDINSYLSWFQQKPGKSPKILIYRANRLIDGVPSRFSGSGSGQDYSLTISSLEYEDMGIYYCLQYGVFPLTFGAGTKLELKR
notes: Chimeric IgG1 kappa

Legend:
[1] = biological target: T1, monkey CD22 protein (ACROBiosystems, …); test: ELISA, monkey CD22-ECD-His coated
Procedure: In order to detect the binding activity of CD22 human-murine chimeric antibodies to CD22 protein, the purified human CD22-ECD-His protein obtained in Example 2 was diluted with PBS to a final concentration of 2 μg/mL, and then added to 96-well ELISA plate at 100 μl/well. The plate was sealed with plastic film and incubated overnight at 4° C., the plate was washed 2 times with PBS the next day, and then a blocking solution [PBS+2% (w/w) BSA] was added for blocking at room temperature for 2 hours. […] After incubation at 37° C. for 2 hours, the plate was washed 3 times with PBS. HRP (horseradish peroxidase)-labeled secondary antibody (purchased from Sigma, catalog number: A0170) was added, and incubated at 37° C. for 2 hours, and the plate was washed 5 times with PBS. TMB substrate was added at 50 μl/well, and incubated at room temperature for 30 minutes, then a stop solution (1.0 N HCl) was added at 50 μl/well.
In order to detect the species cross-binding activity of the chimeric antibodies, an ELISA plate was coated with commercial murine CD22 protein (ACROBiosystems, catalog number: SI2-M52Ha) and monkey CD22 protein (ACROBiosystems, catalog number: SI2-R52Ha), respectively, and the ELISA detection was performed according to the method in Example 5.1.

[2] = biological target: T2, murine CD22 protein (ACROBiosystems, …); test: ELISA, murine CD22-ECD-His coated
Summary of the method: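 Plates were coated overnight at 4° C with 2 μg/mL CD22 protein in PBS and blocked with PBS + 2% BSA. Chimeric antibodies were incubated for 2 h at 37° C, then HRP-labelled secondary for 2 h at 37° C. Bound antibody was read by TMB colour development (30 min, RT) stopped with 1.0 N HCl.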

[3] = biological target: T3, monkey CD22 (full length, on HEK293T …); test: FACS, HEK293T-monkey CD22 cells (293T as parent cells)
Text: The required cells were scale-up cultured in a T-75 cell culture flask to the logarithmic growth phase. For the adherent cell CHO-K1, the medium was aspirated, the cells were washed 2 times with PBS buffer, and then digested with trypsin. After the digestion was terminated, the cells were washed 2 times with PBS buffer. For suspension cell Raji, the medium supernatant was directly centrifuged and discarded, and the cell pellet was washed 2 times with PBS. After counting the cells in the previous step, the cell pellet was resuspended with [PBS+2% (w/w) BSA] blocking solution to 2×10⁶ cells/ml, and added to a 96-well FACS reaction plate at 50 μl/well, and then the chimeric antibody test sample was added at 50 μl/well, and incubated on ice for 2 hours. The mixture was centrifuged and washed 3 times with PBS buffer, Alexa Flour 488-labeled secondary antibody (purchased from Invitrogen, catalog number: A-11013) was added at 50 μl/well, and incubated on ice for 1 hour. The obtained mixture was centrifuged and washed 5 times with PBS, and FACS (FACS Canto™, purchased from BD Company) was used for detection and result analysis. Data analysis was performed by software (CellQuest) to obtain the mean fluorescence density (MFI)of the cells. And then software (GraphPad Prism8) was used for analysis, data fitting, and EC50 value calculation. […] The same method was used to detect the binding of the chimeric antibodies to endogenous CD22-negative cell MoLT4 cells (purchased from ATCC, CRL-1582) and CHO-K1 cells.
HEK293T-monkey CD22 cells were subjected to FACS detection and data analysis according to the method in Example 5.2.

[4] = biological target: T4, human CD22-ECD-His protein; test: SPR (Biacore), antibody captured on Protein A chip, CD22-ECD-His in solution
Summary of the method: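 Antibody captured on Protein A chip, then human CD22-ECD-His injected for 240 s at 30 μL/min, 5 concentrations from 200 nM (1:1 dilution), dissociation up to 600 s, in HBS-EP+ at 25° C. Responses double-referenced; apparent KD and kinetic constants fitted to a Langmuir 1:1 model.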

human CD22 domain1-4-His = biological target: T5, human CD22 domain1-4-His; test: ELISA, plate coated with human CD22 domain1-4-His

Binder	binding result [1]	binding result [2]	binding result [3]	Kd [4] [nM]	koff [4] [s⁻¹]	kon [4] [M⁻¹ s⁻¹]	binding result (human CD22 domain1-4-His)
B1	no binding (tested: 100 nM)	no binding (tested: 100 nM)	no binding (tested: 10 nM)				
B2				18.4	0.000155	8450	no binding
B3				0.254	7.64e-05	301000	no binding
